This passage reports Gb3 deposit results from patent US10287554B2, “Induced pluripotent stem cell model for Fabry disease and use thereof” (KOREA ADVANCED INSTITUTE OF SCIENCE AND TECHNOLOGY, priority 2013, dated 2019).

Type in all cases: cell-based, human
Details in all cases: 10 μg/ml for 5 days, compared with before treatment (FIG. 15)

Experiment [1] has as its system FB-iPSCs (Fabry disease patient originated iPSCs). As to the kind of experiment: Gb3 deposit by anti-Gb3 immunofluorescent staining in FB-iPSCs after Fabrazyme treatment. As for the experimental part:
(§1) Particularly, the FB-iPSCs prepared in Example <1-2> were treated with phosphate buffered saline (PBS) containing 4% formaldehyde, followed by fixing at room temperature for 15 minutes. The cells were treated with 0.1% triton X-100 to give permeability to the cell membrane. After the treatment, the cells were added with 4% normal donkey serum, followed by blocking at room temperature for 1 hour. The cells were treated with the primary antibody such as anti-OCT4 antibody (1:300, R&D Systems, USA), anti-NANOG antibody (1:300, Cell signaling technology, USA), anti-SSEA-4 antibody (1:300, R&D Systems, USA), anti-SOX2 rabbit antibody (BD Transduction Laboratories, USA), anti-Tra-1-81 antibody (1:300, Millipore, USA) or anti-Tra-1-60 antibody (1:300, Millipore, USA), followed by culture overnight at 4° C. Then, the cells were washed several times with PBST (PBS containing 0.1% Tween-20). The cells were treated with Alexa Fluor 488 or Alexa Fluor 594-conjugated secondary antibody (Invitrogen, USA), followed by further culture for 1 hour, leading to immunofluorescent staining of FB-iPSCs.
To investigate whether or not the pharmacologic treatment during the FB-iPSC differentiation was effective in improving Fabry disease, the differentiation of vascular cells was induced from FB-iPSCs and then the cells were treated with Fabrazyme, the α-galactosidase recombinant protein. […]

In experiment [2] the test system is vascular endothelial cells differentiated from FB-iPSCs. As to the kind of experiment: Gb3 deposit by anti-Gb3 immunofluorescent staining in FB-iPSC originated vascular endothelial cells after Fabrazyme treatment. The method, then: as §1
(§2) Particularly, the FB-iPSCs developed by the same manner as described in Example <1-2> were chopped in even sizes of 300˜500 μm in diameter by using a 10 μl syringe needle. […]

In experiment [3] the test system is vascular smooth muscle cells differentiated from FB-iPSCs. As to the kind of experiment: Gb3 deposit by anti-Gb3 immunofluorescent staining in FB-iPSC originated vascular smooth muscle cells after Fabrazyme treatment. As for the experimental part: as §1, §2

B1: Fabrazyme: the α-galactosidase recombinant protein (GLA recombinant protein), belonging to agalsidase beta (protein, UniProt P06280 32-429, looked up)
Alpha-galactosidase A: LDNGLARTPTMGWLHWERFMCNLDCQEEPDSCISEKLFMEMAELMVSEGWKDAGYEYLCIDDCWMAPQRDSEGRLQADPQRFPHGIRQLANYVHSKGLKLGIYADVGNKTCAGFPGSFGYYDIDAQTFADWGVDLLKFDGCYCDSLENLADGYKHMSLALNRTGRSIVYSCEWPLYMWPFQKPNYTEIRQYCNHWRNFADIDDSWKSIKSILDWTSFNQERIVDVAGPGGWNDPDMLVIGNFGLSWNQQVTQMALWAIMAAPLFMSNDLRHISPQAKALLQDKDVIAINQDPLGKQGYQLRQGDNFEVWERPLSGLAWAVAMINRQEIGGPRSYTIAVASLGKGVACNPACFITQLLPVKRKLGFYEWTSRLRSHINPTGTVLLQLENTMQMSLKDLL
Turning to B1, the Gb3 deposit entry is “significantly reduced and hardly detected” in experiment [1]; “significantly reduced and hardly detected” in experiment [2]; “significantly reduced and hardly detected” in experiment [3].
